{"source": "patent US6344203B1", "about": "“Mimicking peptides in cancer therapy” (The Austin Research Institute, priority 1995, dated 2002)", "key": {"[1]": {"system": "human anti-Galα(1,3)Gal IgG antibodies", "experiment": "Elisa: inhibition of anti-Galα(1,3)Gal IgG binding to Galα(1,3)Gal-BSA", "conditions": "for Inhibition of binding of anti-Galα(1,3)Gal IgG to Galα(1,3)Gal-BSA: Elisa, peptides at 5 mM (FIG. 8b); for IC50: Table 3, anti-Galα(1,3)Gal antibody (IgG) 87 μgs/ml, read-out: I50 Anti-Galα(1,3)Gal", "procedure": "(§1) 50 μl of either purified anti-Galα(1,3)Ga IgG or biotinylated IB4 lectin was added to the wells, incubated for 45 minutes at 22° C., washed with PBS-0.05% Tween 20, and 50 μl of the relevant IIRP conjugate added and incubated for a further 45 minutes before washing and the addition of 50 μl of substrate (2,2′ Azino-di-B-ethylbenzthiozoline (Zymed, San Francisco, Calif.)) and reading the OD405.\n(§2) An Elisa was established to calculate the relative “affinity” of the Gal pep 1 (SEQ ID No. 1) for the IB4 lectin and for human anti-Galα(1,3)Gal antibodies, and to compare these with the affinities for α-galactosyl sugars.\n(§3) Peptides or carbohydrates were examined cytofluorographically for their ability to inhibit antibody/lectin binding to the cell surface using a FACSCAN flow cytometer (Becton Dickinson, USA)[20]: 25 μl of inhibitor was mixed with 25 μl of antibody of lectin and incubated at 22° C. for 3 hours (peptides) or at 4° C. for 16 hours (carbohydrates)[14], prior to addition of appropriate targets. An Elisa assay was used to calculate the relative affinities of the sugars or the peptides for both IB4 lectin and antibodies, and were defined as the molar concentration of inhibitor giving 50% inhibition of the maximal binding of lectin or antibody."}, "IB4 lectin [2]": {"target": "T1, IB4 lectin (Griffonia simplicifolia, UniProt Q8W1R6)", "T1 sequence (Q8W1R6 1-247)": "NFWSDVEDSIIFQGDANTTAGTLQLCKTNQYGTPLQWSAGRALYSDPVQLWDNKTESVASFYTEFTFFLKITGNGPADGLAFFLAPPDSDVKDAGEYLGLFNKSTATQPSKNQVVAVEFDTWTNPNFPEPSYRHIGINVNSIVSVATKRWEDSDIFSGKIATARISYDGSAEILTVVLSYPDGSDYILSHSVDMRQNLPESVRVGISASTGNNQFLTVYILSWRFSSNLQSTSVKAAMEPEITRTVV", "experiment": "Elisa: inhibition of IB4 lectin binding to Galα(1,3)Gal-BSA", "conditions": "for Inhibition of binding of IB4 to Galα(1,3)Gal-BSA: Elisa, peptide concentration 5 mM (FIG. 8a)", "procedure": "as §1, §2, §3"}, "IB4 lectin [3]": {"target": "T1, IB4 lectin", "experiment": "Cytofluorographic inhibition of IB4 lectin binding to PIEC cells", "type": "cell-based", "conditions": "peptides at 5 mM (FIG. 7)", "procedure": "FIGS. 3(A-C). […] (A); Staining of PIEC cells with IB4 lectin (1 μg/ml). (B) Staining of PIEC cells with NHS (final dilution of 1/50) and anti-human Ig. (C) Staining of PBL with IB4 lectin (μg/ml). Peptides were used at 5 mM (A and C) or at 20 mM (B). In each panel profile “a” represents binding in the presence of Gal pep 1 (SEQ ID No. 1), and profile “b” the binding in the presence of CD48 pep 1 (SEQ ID No. 11).\nFIGS. 6(A-B). […] Varying concentrations of peptides (shown in mM on horizontal axis) were explained for ability to inhibit the binding of IB4 lectin (1 μg/ml) to tie PIEC cells using cytofluorographic analysis. (a) Gal pep 1 (SEQ ID No. 1) (□), Muc pep 1 (SEQ ID No. 15) (∘).\nFIG. 7. […] All peptides used at 5 mM, using cytofluorograhic analysis. Inhibition calculated relative to no peptide control.\n(§4) The binding of lectin or antibody to the surface of pig cells was detected by hemagglutination, cytotoxicity or flow cytometry using the FACSCAN flow cytometer (Becton Dickinson, Mountain View, Calif.).\nas §3"}, "PIEC cells": {"system": "PIEC cells", "experiment": "Inhibition of cytotoxicity of NHS and complement on PIEC", "type": "cell-based, pig", "conditions": "peptide 10 mM to 2.5 mM, NHS 1/25", "description": "FIG. 4. Inhibition of cytotoxicity due to natural antibody and complement by Gal pep 1 (SEQ ID No. 1). Varying concentrations of Gal pep 1 (∘) or CD48 pep 1 (♦) (shown in mM on horizontal axis) were examined in a cytotoxicity assay using NHS (final dilution of 1/25) and PEEC cells as targets.\nas §4\nHuman cytotoxic antibodies directly damage pig endothelial cells in a pig-to-human xenograft, therefore the ability of Gal pep 1 (SEQ ID No. 1) to inhibit the cytotoxicity of human antibodies on PIEC in vitro was tested; Gal pep 1 inhibited the cytotoxicity of NHS (10 mM to 2.5 mM), whereas CD48 pep 1 (SEQ ID No. 11) had no effect (FIG. 4)."}, "[4]": {"target": "IB4 lectin from Griffonia simplicifolia (Griffonia simplicifolia)", "experiment": "flow cytometry, IB4 on pig PBL"}, "[5]": {"target": "purified human anti-Galα(1,3)Gal IgG antibodies (human)", "experiment": "competition ELISA (I50): peptide inhibits anti-Galα(1,3)Gal IgG binding to Galα(1,3)Gal-BSA"}, "[6]": {"target": "human natural antibodies in normal human serum (NHS) (human)", "experiment": "flow cytometry, NHS (1/50) natural antibodies on PIEC cells; no inhibition at lower concentrations"}, "[7]": {"target": "IB4 lectin from Griffonia simplicifolia (Griffonia simplicifolia)", "experiment": "competition ELISA (I50): peptide inhibits biotinylated IB4 binding to Galα(1,3)Gal-BSA"}, "[8]": {"target": "human natural antibodies in normal human serum (NHS) (human)", "experiment": "cell-based or functional assay"}, "[9]": {"target": "IB4 lectin from Griffonia simplicifolia (Griffonia simplicifolia)", "experiment": "inhibition of IB4 reaction with galactomannan (not shown)"}, "[10]": {"target": "BC1 anti-MUC1 monoclonal antibody", "experiment": "flow cytometry, competition with MUC1 on MUC1+3T3 (MOR5) cells"}, "[11]": {"target": "IB4 lectin from Griffonia simplicifolia (Griffonia simplicifolia)", "experiment": "flow cytometry, IB4 (1 µg/ml) on PIEC cells"}}, "note": "Read-outs that look alike come from different tables or passages of the source. No end group written: not given here.", "data": [{"molecule": "RYHHYSSNFSIPKANHSHSGDYYCKGSL [FcR pep 1, control peptide, MURINE FCRIIβ2]", "values": [{"measurement": "Inhibition of binding of anti-Galα(1,3)Gal IgG to Galα(1,3)Gal-BSA", "setting": "[1]", "value": "had no effect"}]}, {"molecule": "TECKHKKGKVVSGKVLSY [CD4 pep 1, control peptide, murine CD4]", "values": [{"measurement": "Inhibition of binding of anti-Galα(1,3)Gal IgG to Galα(1,3)Gal-BSA", "setting": "[1]", "value": "had no effect"}, {"measurement": "Inhibition of binding of IB4 to Galα(1,3)Gal-BSA", "setting": "IB4 lectin [2]", "value": "did not inhibit"}]}, {"molecule": "TGFNQYKTEAASRVNL [Muc pep 8, human Muc1 COOH to VNTR]", "values": [{"measurement": "Inhibition of IB4 lectin binding to PIEC cells", "setting": "IB4 lectin [3]", "value": "inhibited"}]}, {"molecule": "TSSASTGHATPLPVTP [Muc pep 11]", "values": [{"measurement": "Inhibition of binding of anti-Galα(1,3)Gal IgG to Galα(1,3)Gal-BSA", "setting": "[1]", "value": "inhibited"}, {"measurement": "IC50", "setting": "[1]", "value": 2.5, "unit": "mM"}, {"measurement": "Inhibition of binding of IB4 to Galα(1,3)Gal-BSA", "setting": "IB4 lectin [2]", "value": "complete inhibition"}, {"measurement": "Inhibition of IB4 lectin binding to PIEC cells", "setting": "IB4 lectin [3]", "value": "inhibited"}]}, {"molecule": "WEADLHWS [Scram pep 1]", "values": [{"measurement": "IC50", "setting": "[1]", "value": "> 20", "unit": "mM"}]}, {"molecule": "YTFDQKIVEWDSRKSKC [CD48 pep 1]", "values": [{"measurement": "IC50", "setting": "IB4 lectin [2]", "value": "> 20", "unit": "mM"}, {"measurement": "IC50", "setting": "IB4 lectin [2]; read-out: I50 IB4, Table 3, biotinylated IB4 lectin 6.25 μgs/ml", "value": "> 20", "unit": "mM"}, {"measurement": "Inhibition of cytotoxicity of NHS on PIEC", "setting": "PIEC cells", "value": "had no effect"}]}, {"molecule": "DAHWESWL", "note": "[Gal pep 1 (DAHWESWL), synthetic peptide]", "values": [{"measurement": "peptide concentration that blocked IB4 binding to PBL", "setting": "[4]", "value": 5, "unit": "mM"}, {"measurement": "IC50", "setting": "[5]", "value": 10, "unit": "mM"}, {"measurement": "peptide concentration at which inhibition occurred", "setting": "[6]", "value": 20, "unit": "mM"}, {"measurement": "IC50", "setting": "[7]", "value": 0.3, "unit": "mM"}, {"measurement": "blocking of hemagglutination of pig RBC by NHS", "setting": "[8]", "value": 5, "unit": "mM"}, {"measurement": "IC50", "setting": "[9]", "value": 5, "unit": "mM"}, {"measurement": "lowest peptide concentration that inhibited BC1 binding to MUC1+3T3 cells", "setting": "[10]", "value": 0.156, "unit": "mM"}]}, {"molecule": "YTFDQKIVEWDSRKSKC", "note": "[CD48 pep 1]", "values": [{"measurement": "IC50", "setting": "[5]", "value": "> 20", "unit": "mM"}, {"measurement": "IC50", "setting": "[7]", "value": "> 20", "unit": "mM"}]}, {"molecule": "CPAHGVTSAPDTRPAPGSTAP", "note": "[Muc pep 1]", "values": [{"measurement": "IC50", "setting": "[5]", "value": 2.5, "unit": "mM"}, {"measurement": "IC50", "setting": "[7]", "value": 0.078, "unit": "mM"}, {"measurement": "concentration down to which inhibition was almost complete", "setting": "[11]", "value": 0.125, "unit": "mM"}]}, {"molecule": "TGSGHASSTPGGEKETSAQRSSVP", "note": "[Muc pep 6]", "values": [{"measurement": "IC50", "setting": "[7]", "value": 1.25, "unit": "mM"}]}, {"molecule": "TSSASTGHATPLPVTP", "note": "[Muc pep 11]", "values": [{"measurement": "IC50", "setting": "[5]", "value": 2.5, "unit": "mM"}, {"measurement": "IC50", "setting": "[7]", "value": 0.156, "unit": "mM"}]}, {"molecule": "WEADLHWS", "note": "[Scram pep 1]", "values": [{"measurement": "IC50", "setting": "[5]", "value": "> 20", "unit": "mM"}, {"measurement": "IC50", "setting": "[7]", "value": "> 20", "unit": "mM"}]}]}
